In the supplement of paper PMC11208486:

Key:
[1] = melting temperature (ThermoFMN); higher = more thermostable
Method: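 Purified His-tagged ene reductases (1 mg/ml) in 50 mM sodium phosphate pH 7.4 with 0-30% (v/v) organic co-solvent. Melting temperature was measured by the ThermoFMN assay (FMN fluorescence, 20-90 °C at 1 °C/min, inflection point, triplicate). Specific initial activity was measured with 10 mM cyclohex-2-enone and 0.2 mM NAD(P)H (NADH for LacER) as A340 depletion, at room temperature (DMSO, 2-propanol, n-propanol) or 25 °C (EtOH, MeOH), in triplicate. The TsOYE Tm is above the 90 °C measurement range.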

[2] = specific initial activity, cyclohex-2-enone reduction (U mg-1); higher = more active
Method: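 Purified His-tagged ene reductases in 50 mM sodium phosphate pH 7.4 with 0-30% (v/v) organic co-solvent. Melting temperature was measured by the ThermoFMN assay (FMN fluorescence, 20-90 °C at 1 °C/min, inflection point, triplicate). Specific initial activity was measured with 10 mM cyclohex-2-enone and 0.2 mM NAD(P)H (NADH for LacER) as A340 depletion, at room temperature (DMSO, 2-propanol, n-propanol) or 25 °C (EtOH, MeOH), in triplicate. The TsOYE Tm is above the 90 °C measurement range.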

MNPKYKPLFEPFTFKSGVTINNRIAVAPMTHYASNEDGTISEAELDYIIPRSKEMGMVITACANVTPDGKAFPGQPAIHDDSNIPGLKKLAQAIQAQGAKAVVQIHHGGIECPSELVPQQDVVGPSDVFDNGKQIARALTEEEVENIVKAFGEATRRAIEAGFDGVEIHGANGYLIQQFYSPKTNQRTDRWGGSDEKRLAFPLAIVDEVKKAASEHAKGAFLVGYRLSPEEPETPGLTMTETYTLVDALGDKELDYLHISLMDVNSKARRGADPTRTRMDLLNERVGNKVPLIAVGSIHSADDALAVIENGIPLVAMGREILVDPNWTVKVKEGREKQIETVIKGTDKEKYHLPEPLWQAIVNTQGWVPYKD
Conditions | melting temperature, co-solvent: 2-propanol [°C] | melting temperature, co-solvent: dimethyl sulfoxide [°C] | melting temperature, co-solvent: ethanol [°C] | melting temperature, co-solvent: methanol [°C] | melting temperature, co-solvent: n-propanol [°C] | specific initial activity, co-solvent: 2-propanol | specific initial activity, co-solvent: dimethyl sulfoxide | specific initial activity, co-solvent: ethanol | specific initial activity, co-solvent: methanol | specific initial activity, co-solvent: n-propanol
[1], co-solvent concentration (% v/v): 0 | 54 | 54 | 54 | 54 | 54 | – | – | – | – | –
[1], co-solvent concentration (% v/v): 5 | 46 | 51.7 | 51 | 52.3 | 43.7 | – | – | – | – | –
[1], co-solvent concentration (% v/v): 10 | 39.3 | 51 | 45.3 | 49.7 | 33 | – | – | – | – | –
[1], co-solvent concentration (% v/v): 15 | 39.3 | 50 | 42 | 43.7 | 31.3 | – | – | – | – | –
[1], co-solvent concentration (% v/v): 20 | 33.7 | 50 | 38.7 | 44.3 | 30.3 | – | – | – | – | –
[1], co-solvent concentration (% v/v): 25 | 32.7 | 49.7 | 38.3 | 42.3 | 29.3 | – | – | – | – | –
[1], co-solvent concentration (% v/v): 30 | 33.7 | 49.7 | 36.3 | 40 | 30.3 | – | – | – | – | –
[2], co-solvent concentration (% v/v): 0 | – | – | – | – | – | 5.75 | 4.09 | 5.73 | 5.71 | 5.25
[2], co-solvent concentration (% v/v): 5 | – | – | – | – | – | 6.02 | 4.4 | 5.9 | 6.14 | 5.2
[2], co-solvent concentration (% v/v): 10 | – | – | – | – | – | 6.11 | 4.34 | 6.22 | 5.62 | 4.82
[2], co-solvent concentration (% v/v): 15 | – | – | – | – | – | 6.21 | 4.41 | 6.67 | 5.36 | 4.55
[2], co-solvent concentration (% v/v): 20 | – | – | – | – | – | 6.17 | 4.2 | 6.21 | 5.05 | 4.07
[2], co-solvent concentration (% v/v): 25 | – | – | – | – | – | 5.81 | 4.35 | 6.62 | 5.09 | 3.69
[2], co-solvent concentration (% v/v): 30 | – | – | – | – | – | 5.26 | 4.2 | 5.96 | 4.27 | 2.94

MSFVKDFKPQALGDTNLFKPIKIGNNELLHRAVIPPLTRMRALHPGNIPNRDWAVEYYTQRAQRPGTMIITEGAFISPQAGGYDNAPGVWSEEQMVEWTKIFNAIHEKKSFVWVQLWVLGWAAFPDNLARDGLRYDSASDNVFMDAEQEAKAKKANNPQHSLTKDEIKQYIKEYVQAAKNSIAAGADGVEIHSANGYLLNQFLDPHSNTRTDEYGGSIENRARFTLEVVDALVEAIGHEKVGLRLSPYGVFNSMSGGAETGIVAQYAYVAGELEKRAKAGKRLAFVHLVEPRVTNPFLTEGEGEYEGGSNDFVYSIWKGPVIRAGNFALHPEVVREEVKDKRTLIGYGRFFISNPDLVDRLEKGLPLNKYDRDTFYQMSAHGYIDYPTYEEALKLGWDKK
Conditions | melting temperature, co-solvent: 2-propanol [°C] | melting temperature, co-solvent: dimethyl sulfoxide [°C] | melting temperature, co-solvent: ethanol [°C] | melting temperature, co-solvent: methanol [°C] | melting temperature, co-solvent: n-propanol [°C] | specific initial activity, co-solvent: 2-propanol | specific initial activity, co-solvent: dimethyl sulfoxide | specific initial activity, co-solvent: ethanol | specific initial activity, co-solvent: methanol | specific initial activity, co-solvent: n-propanol
[1], co-solvent concentration (% v/v): 0 | 45 | 45 | 45.3 | 46 | 45 | – | – | – | – | –
[1], co-solvent concentration (% v/v): 5 | 44 | 44.3 | 43.3 | 45 | 40.3 | – | – | – | – | –
[1], co-solvent concentration (% v/v): 10 | 41.3 | 43.3 | 42 | 43 | 34.7 | – | – | – | – | –
[1], co-solvent concentration (% v/v): 15 | 37.3 | 42 | 39.7 | 42 | 31.7 | – | – | – | – | –
[1], co-solvent concentration (% v/v): 20 | 34.7 | 40.7 | 37.7 | 40.3 | 31 | – | – | – | – | –
[1], co-solvent concentration (% v/v): 25 | 33.7 | 39.3 | 35.3 | 37.7 | 30.3 | – | – | – | – | –
[1], co-solvent concentration (% v/v): 30 | 28.3 | 37.3 | 34.3 | 34.7 | 27.3 | – | – | – | – | –
[2], co-solvent concentration (% v/v): 0 | – | – | – | – | – | 1.22 | 1.31 | 1.49 | 1.55 | 1.3
[2], co-solvent concentration (% v/v): 5 | – | – | – | – | – | 1.54 | 1.43 | 1.58 | 1.72 | 1.59
[2], co-solvent concentration (% v/v): 10 | – | – | – | – | – | 1.7 | 1.35 | 1.78 | 1.81 | 1.83
[2], co-solvent concentration (% v/v): 15 | – | – | – | – | – | 1.86 | 1.31 | 1.97 | 2.07 | 1.81
[2], co-solvent concentration (% v/v): 20 | – | – | – | – | – | 1.8 | 1.38 | 2 | 2.23 | 1.86
[2], co-solvent concentration (% v/v): 25 | – | – | – | – | – | 2 | 1.32 | 2.1 | 2.42 | 1.84
[2], co-solvent concentration (% v/v): 30 | – | – | – | – | – | 2.05 | 1.32 | 2.46 | 2.58 | 1.96
